How the values were obtained:
Assay in all cases: cell-based or functional assay
[1] = molecular target: T1, FcγIIIA Receptor on the effector cells (CD16 / FcγRIII) (human, UniProt P08637 17-254)
[2] = molecular target: T1, FcγIIIA Receptor on the effector cells …; remark: listed apart in the source
[3] = molecular target: T1, FcγIIIA Receptor on the effector cells …; remark: listed apart in the source
[4] = molecular target: C1q Receptor in the complement system (rabbit serum as the source of complement) (rabbit)

T1 sequence (P08637 17-254): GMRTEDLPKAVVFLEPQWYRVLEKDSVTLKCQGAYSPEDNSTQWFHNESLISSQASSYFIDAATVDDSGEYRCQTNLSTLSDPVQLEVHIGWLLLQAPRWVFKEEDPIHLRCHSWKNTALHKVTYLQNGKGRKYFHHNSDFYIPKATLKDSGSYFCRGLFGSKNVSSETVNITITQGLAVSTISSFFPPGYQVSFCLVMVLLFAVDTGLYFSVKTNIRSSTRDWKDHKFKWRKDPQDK

ADCC EC50, fold lower than OCREVUS [1]: ~25 fold
ADCC EC50 (Raji target cells, KILR CD16a effector cells) [2]: 0.00242 ng/mL
EC50 of ADCC assay Using Primary NK Cells [3]: 49000 ng/mL
CDC EC50 (Jeko-1 cells, rabbit complement) [4]: 670 ng/mL
B1: TG-1101 (TG Therapeutics, Inc.) (antibody, human IgG1, kappa)
heavy: not shown
light: QIVLSQSPAILSASPGEKVTMTCRASSSVSYMHWYQQKPGSSPKPWIYATSNLASGVPARFSGSGSGTSYSFTISRVEAEDAATYYCQQWTFNPPTFGGGTRLEIKRTVAAPSVFIFPPSDEQLKSGTASVVCLLNNFYPREAKVQWKVDNALQSGNSQESVTEQDSKDSTYSLSSTLTLSKADYEKHKVYACEVTHQGLSSPVTKSFNRGEC
